In patent US20230038638A1, “COMPLEMENT FACTOR I-RELATED COMPOSITIONS AND METHODS” (published 2023):

Experiments:
human C4b (human) = biological target: T1, human C4b (human) (UniProt P0C0L5)
T1 sequence: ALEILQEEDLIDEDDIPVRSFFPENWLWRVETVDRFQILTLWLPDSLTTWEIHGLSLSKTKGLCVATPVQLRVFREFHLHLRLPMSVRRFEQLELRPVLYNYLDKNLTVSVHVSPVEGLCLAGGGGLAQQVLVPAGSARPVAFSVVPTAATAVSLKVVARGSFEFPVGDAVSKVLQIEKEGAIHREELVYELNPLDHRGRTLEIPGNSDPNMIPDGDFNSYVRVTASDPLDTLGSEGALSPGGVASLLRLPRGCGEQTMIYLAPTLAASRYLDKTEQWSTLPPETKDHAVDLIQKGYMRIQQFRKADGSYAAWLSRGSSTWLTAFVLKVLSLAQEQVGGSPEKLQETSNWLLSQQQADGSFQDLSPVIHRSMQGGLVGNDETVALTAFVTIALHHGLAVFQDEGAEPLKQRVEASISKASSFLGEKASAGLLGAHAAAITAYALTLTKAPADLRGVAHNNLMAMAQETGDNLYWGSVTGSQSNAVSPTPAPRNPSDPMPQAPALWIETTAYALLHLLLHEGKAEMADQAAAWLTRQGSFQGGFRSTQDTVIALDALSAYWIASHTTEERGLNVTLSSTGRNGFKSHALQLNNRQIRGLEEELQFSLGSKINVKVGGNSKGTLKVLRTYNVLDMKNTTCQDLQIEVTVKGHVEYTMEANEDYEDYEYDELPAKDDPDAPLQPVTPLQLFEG

[1] = biological target: soluble human C3b (human) (UniProt P01024)

WT; GGSSGG (SEQ ID NO: 6); CCP_1-4 (enzyme), sequence (chain): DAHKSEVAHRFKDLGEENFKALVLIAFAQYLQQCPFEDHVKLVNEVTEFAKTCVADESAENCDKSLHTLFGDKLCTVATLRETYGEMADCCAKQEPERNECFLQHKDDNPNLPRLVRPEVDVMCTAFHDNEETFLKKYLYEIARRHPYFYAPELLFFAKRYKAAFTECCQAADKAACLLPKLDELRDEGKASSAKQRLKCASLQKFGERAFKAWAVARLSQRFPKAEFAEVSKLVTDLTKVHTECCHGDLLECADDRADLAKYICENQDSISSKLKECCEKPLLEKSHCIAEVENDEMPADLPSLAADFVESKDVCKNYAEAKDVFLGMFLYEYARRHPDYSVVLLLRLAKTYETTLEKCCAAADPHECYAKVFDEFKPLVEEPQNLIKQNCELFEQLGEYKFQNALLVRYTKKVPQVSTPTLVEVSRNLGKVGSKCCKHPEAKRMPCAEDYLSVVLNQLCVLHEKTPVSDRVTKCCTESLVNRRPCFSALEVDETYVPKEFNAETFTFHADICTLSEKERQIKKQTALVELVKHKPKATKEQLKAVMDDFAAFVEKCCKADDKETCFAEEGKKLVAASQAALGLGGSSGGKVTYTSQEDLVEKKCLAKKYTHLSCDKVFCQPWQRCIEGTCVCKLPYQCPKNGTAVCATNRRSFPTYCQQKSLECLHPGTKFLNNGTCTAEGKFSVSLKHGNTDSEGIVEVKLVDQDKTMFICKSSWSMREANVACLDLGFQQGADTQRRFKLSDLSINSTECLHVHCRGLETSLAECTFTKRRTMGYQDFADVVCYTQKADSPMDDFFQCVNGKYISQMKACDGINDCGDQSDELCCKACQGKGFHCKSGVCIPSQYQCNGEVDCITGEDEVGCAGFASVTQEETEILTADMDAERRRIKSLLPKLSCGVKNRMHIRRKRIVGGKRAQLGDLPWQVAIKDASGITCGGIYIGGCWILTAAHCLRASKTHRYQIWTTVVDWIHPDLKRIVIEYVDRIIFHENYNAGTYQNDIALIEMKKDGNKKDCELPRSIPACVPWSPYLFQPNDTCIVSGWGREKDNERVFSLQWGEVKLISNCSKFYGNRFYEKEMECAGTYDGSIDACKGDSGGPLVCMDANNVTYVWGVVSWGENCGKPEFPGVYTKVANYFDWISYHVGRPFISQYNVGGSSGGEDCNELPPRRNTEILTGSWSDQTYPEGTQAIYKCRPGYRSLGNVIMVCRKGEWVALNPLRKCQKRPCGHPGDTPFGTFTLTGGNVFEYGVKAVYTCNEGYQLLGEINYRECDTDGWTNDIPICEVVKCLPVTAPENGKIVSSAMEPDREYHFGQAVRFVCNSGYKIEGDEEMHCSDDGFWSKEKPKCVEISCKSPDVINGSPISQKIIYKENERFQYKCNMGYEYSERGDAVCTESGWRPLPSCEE
Δ(K1-P305); GGSSGG (SEQ ID NO: 6); fH_CCP1-4 (enzyme), sequence (chain): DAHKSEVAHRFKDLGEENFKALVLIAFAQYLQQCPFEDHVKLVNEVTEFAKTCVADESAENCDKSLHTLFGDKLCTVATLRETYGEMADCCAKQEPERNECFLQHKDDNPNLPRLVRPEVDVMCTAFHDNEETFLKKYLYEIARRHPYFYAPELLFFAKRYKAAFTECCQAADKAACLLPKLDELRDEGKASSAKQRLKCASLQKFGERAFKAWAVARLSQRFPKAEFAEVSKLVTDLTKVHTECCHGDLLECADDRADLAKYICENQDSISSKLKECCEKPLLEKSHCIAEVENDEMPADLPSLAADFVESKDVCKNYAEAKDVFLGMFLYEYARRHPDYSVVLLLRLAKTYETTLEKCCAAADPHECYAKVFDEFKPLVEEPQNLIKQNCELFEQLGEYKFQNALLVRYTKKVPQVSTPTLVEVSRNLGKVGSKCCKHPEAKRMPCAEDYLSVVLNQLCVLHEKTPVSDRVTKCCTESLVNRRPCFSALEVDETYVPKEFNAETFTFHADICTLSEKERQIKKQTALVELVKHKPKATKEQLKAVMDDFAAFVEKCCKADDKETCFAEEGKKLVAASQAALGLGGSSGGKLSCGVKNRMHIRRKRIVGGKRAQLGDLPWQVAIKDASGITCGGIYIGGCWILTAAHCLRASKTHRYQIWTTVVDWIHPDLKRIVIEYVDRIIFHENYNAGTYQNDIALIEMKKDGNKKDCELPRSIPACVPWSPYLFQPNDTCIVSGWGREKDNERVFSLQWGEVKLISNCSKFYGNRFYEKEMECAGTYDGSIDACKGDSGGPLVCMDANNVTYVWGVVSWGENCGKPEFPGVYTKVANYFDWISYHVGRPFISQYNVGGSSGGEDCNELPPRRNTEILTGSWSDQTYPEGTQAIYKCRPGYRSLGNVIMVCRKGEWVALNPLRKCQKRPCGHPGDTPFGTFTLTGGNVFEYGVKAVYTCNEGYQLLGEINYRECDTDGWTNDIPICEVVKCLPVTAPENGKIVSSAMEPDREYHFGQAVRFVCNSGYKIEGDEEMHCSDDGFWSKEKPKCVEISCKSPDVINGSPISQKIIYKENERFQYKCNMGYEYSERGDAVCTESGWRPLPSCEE

| Substance | C4b Screen Ref Fold (fold vs CFI-HSA wild type) (human C4b (human)) | iC3b Screen Ref Fold (fold vs CFI-HSA wild type) [1] | other results |
| --- | --- | --- | --- |
| CFI-HSA E457G; N531G; E461Q; R462K; F464Y; GGSSGG (SEQ ID NO: 6); CR1 (ccp1-3) (from UniProt P17927) (enzyme) | 0.46 | 0.14 | – |
| CFI-HSA variant Y408L; E457G; P535G; P558S (enzyme) | – | – | C4b Screen Ref Fold (fold of CFI-HSA wild type) (human C4b (human)): 1.08; iC3b Screen Ref Fold (fold of CFI-HSA wild type) [1]: 0.7 |
| CFI-HSA variant Y408L; N422K (enzyme) | – | – | C4b Screen Ref Fold (fold of CFI-HSA wild type) (human C4b (human)): 0.6; iC3b Screen Ref Fold (fold of CFI-HSA wild type) [1]: 1.27 |
| CFI-HSA variant Y408L; N531G; P535G (enzyme) | – | – | C4b Screen Ref Fold (fold of CFI-HSA wild type) (human C4b (human)): 0.89; iC3b Screen Ref Fold (fold of CFI-HSA wild type) [1]: 0.97 |
| CFI-HSA variant E457G; N531G; P535G; WT; GGSSGG (SEQ ID NO: 6); CR1(ccp15-17) (from UniProt P17927) (enzyme) | – | – | C4b Screen Ref Fold (fold of CFI-HSA wild type) (human C4b (human)): 5.82; iC3b Screen Ref Fold (fold of CFI-HSA wild type) [1]: 0.03 |
| CFI-HSA variant Δ(K1-P305); 1317D-R318D-R319D-K320D-R321K (enzyme) | 0.06 | 0.03 | – |
| CFI-HSA variant N531G; P535G; WT; GGSSGG (SEQ ID NO: 6); CR1(ccp15-17) (from UniProt P17927) (enzyme) | – | – | C4b Screen Ref Fold (fold of CFI-HSA wild type) (human C4b (human)): 3.06; iC3b Screen Ref Fold (fold of CFI-HSA wild type) [1]: 0.06 |
| CFI-HSA E457G; E461Q; R557K (enzyme) | 4.28 | 1.81 | – |
| CFI-HSA R557Y (enzyme) | 3.23 | 0.21 | – |
| CFI-HSA variant S552G (enzyme) | – | – | C4b Screen Ref Fold (fold of CFI-HSA wild type) (human C4b (human)): 1.08; iC3b Screen Ref Fold (fold of CFI-HSA wild type) [1]: 0.58 |
| CFI-HSA V526G (enzyme) | 0.03 | -0.01 | – |
| CFI-HSA variant S552G; V565I (enzyme) | – | – | C4b Screen Ref Fold (fold of CFI-HSA wild type) (human C4b (human)): 1.23; iC3b Screen Ref Fold (fold of CFI-HSA wild type) [1]: 1.58 |
| CFI-HSA variant K14E; E487K (enzyme) | – | – | C4b Screen Ref Fold (fold of CFI-HSA wild type) (human C4b (human)): 0.7; iC3b Screen Ref Fold (fold of CFI-HSA wild type) [1]: 1.43 |
| CFI-HSA variant Y408L; P535G; K534Q (enzyme) | – | – | C4b Screen Ref Fold (fold of CFI-HSA wild type) (human C4b (human)): 0.33; iC3b Screen Ref Fold (fold of CFI-HSA wild type) [1]: 0.26 |
| CFI-HSA variant N531G; P535A; GGSSGG (SEQ ID NO: 6); CR1(ccp15-17) (from UniProt P17927) (enzyme) | – | – | C4b Screen Ref Fold (fold of CFI-HSA wild type) (human C4b (human)): 3.53; iC3b Screen Ref Fold (fold of CFI-HSA wild type) [1]: 0.14 |
| CFI-HSA variant R462K (enzyme) | 0.27 | 0.24 | – |
| CFI-HSA S527G (enzyme) | 0.09 | 0.16 | – |
| CFI-HSA R365W (enzyme) | 0.24 | 0.89 | – |
| CFI-HSA H370G (enzyme) | 0.13 | 0.52 | – |
| CFI-HSA Y408L; N531G; D425R; E530Y (enzyme) | 2.99 | 2.08 | – |
| CFI-HSA R557I (enzyme) | 3.27 | 0.16 | – |
| CFI-HSA variant Δ(K1-P305); Y408L; N531G (enzyme) | 0.14 | 0.05 | – |

| Substance | C4b Screen Ref Fold (fold vs CFI-HSA wild type) (human C4b (human)) | iC3b Screen Ref Fold (fold vs CFI-HSA wild type) [1] | other results |
| --- | --- | --- | --- |
| CFI-HSA D549N (enzyme) | 1.08 | 1.48 | – |
| CFI-HSA variant F559L; Y563H; V565T (enzyme) | – | – | C4b Screen Ref Fold (fold of CFI-HSA wild type) (human C4b (human)): 0.55; iC3b Screen Ref Fold (fold of CFI-HSA wild type) [1]: 0.58 |
| CFI-HSA R557D (enzyme) | 0.5 | -0.01 | – |
| CFI-HSA R365D (enzyme) | 0.02 | 0.03 | – |
| CFI-HSA K424I (enzyme) | 0.28 | 1.48 | – |
| CFI-HSA variant Y403F; G406A; D425K; E457G; E461Q; N531G (enzyme) | – | – | C4b Screen Ref Fold (fold relative to CFI-HSA wild type) (human C4b (human)): 4.12; iC3b Screen Ref Fold (fold relative to CFI-HSA wild type) [1]: 0.14 |
| CFI-HSA variant Y403F; G406A; D425K; E457G; E461Q; K504Y; N531G (enzyme) | – | – | C4b Screen Ref Fold (fold relative to CFI-HSA wild type) (human C4b (human)): 3.16; iC3b Screen Ref Fold (fold relative to CFI-HSA wild type) [1]: 0.02 |
| CFI-HSA R365T (enzyme) | 0.96 | 0.56 | – |
| CFI-HSA D459G (enzyme) | 1.07 | 1.93 | – |
| CFI-HSA variant Y408L; E457G; P535G; WT; GGSSGG (SEQ ID NO: 6); CR1(ccp15-17) (from UniProt P17927) (enzyme) | – | – | C4b Screen Ref Fold (fold of CFI-HSA wild type) (human C4b (human)): 1.99; iC3b Screen Ref Fold (fold of CFI-HSA wild type) [1]: 0.23 |
| CFI-HSA variant Y553F; P558S; F559L (enzyme) | – | – | C4b Screen Ref Fold (fold of CFI-HSA wild type) (human C4b (human)): 0.6; iC3b Screen Ref Fold (fold of CFI-HSA wild type) [1]: 0.5 |
| CFI-HSA variant Y553F; P558S (enzyme) | – | – | C4b Screen Ref Fold (fold of CFI-HSA wild type) (human C4b (human)): 1.26; iC3b Screen Ref Fold (fold of CFI-HSA wild type) [1]: 0.84 |
| CFI-HSA variant K14E (enzyme) | – | – | C4b Screen Ref Fold (fold of CFI-HSA wild type) (human C4b (human)): 1.35; iC3b Screen Ref Fold (fold of CFI-HSA wild type) [1]: 1.74 |
| CFI-HSA variant Y553H; F559L (enzyme) | – | – | C4b Screen Ref Fold (fold of CFI-HSA wild type) (human C4b (human)): 1.16; iC3b Screen Ref Fold (fold of CFI-HSA wild type) [1]: 0.32 |
| CFI-HSA variant Y408L; E457G; N531G; WT; GGSSGG (SEQ ID NO: 6); CR1(ccp15-17) (from UniProt P17927) (enzyme) | – | – | C4b Screen Ref Fold (fold of CFI-HSA wild type) (human C4b (human)): 3.65; iC3b Screen Ref Fold (fold of CFI-HSA wild type) [1]: 0.1 |
| CFI-HSA K423D (enzyme) | 0.31 | 0.33 | – |
| WT; GGSSGG (SEQ ID NO: 6); CCP_1-4 (enzyme) | 0.21 | 0.02 | – |
| CFI-HSA N531G; D425R; E530Y (enzyme) | 2.71 | 2.05 | – |
| CFI-HSA T377G; N531G (enzyme) | 4.53 | 2.34 | – |
| CFI-HSA variant Y403F; D425K; E457G; E461Q; K504Y; N531G (enzyme) | – | – | C4b Screen Ref Fold (fold relative to CFI-HSA wild type) (human C4b (human)): 3.11; iC3b Screen Ref Fold (fold relative to CFI-HSA wild type) [1]: 0.03 |
| CFI-HSA variant Y408L; N531G; P535G; K534Q (enzyme) | – | – | C4b Screen Ref Fold (fold of CFI-HSA wild type) (human C4b (human)): 1.47; iC3b Screen Ref Fold (fold of CFI-HSA wild type) [1]: 1.2 |

Now from value to substance, other results behind:

| C4b Screen Ref Fold (fold vs CFI-HSA wild type) (human C4b (human)) | iC3b Screen Ref Fold (fold vs CFI-HSA wild type) [1] | Substance | other results |
| --- | --- | --- | --- |
| 0.52 | 1.1 | CFI-HSA Y553A (enzyme) | – |
| 0.37 | 1.1 | CFI-HSA Y553V (enzyme) | – |
| 0.03 | -0.02 | CFI-HSA H362G (enzyme) | – |
| 4.38 | 2.31 | CFI-HSA T377G; E457G (enzyme) | – |
| 0.26 | 0.5 | CFI-HSA R327G (enzyme) | – |
| 0.01 | 0.03 | CFI-HSA V540G (enzyme) | – |
| 0.17 | 0.3 | CFI-HSA L73G (enzyme) | – |
| 0.15 | 0.04 | Δ(K1-P305); GGSSGG (SEQ ID NO: 6); fH_CCP1-4 (enzyme) | – |
| 0.5 | 1.48 | CFI-HSA K424N (enzyme) | – |
| 0.1 | 0.2 | CFI-HSA D549L (enzyme) | – |
| 3.17 | 2.82 | CFI-HSA T377G; E461Q (enzyme) | – |
| 0.52 | 0.27 | CFI-HSA D549R (enzyme) | – |
| 0.21 | 0.03 | (HSA-GS)-V311-V565 - G(10) - K1-G310; C309S; C435S (enzyme) | – |
| 0.24 | 0.16 | CFI-HSA K368G (enzyme) | – |
| 0.02 | 0 | CFI-HSA variant D506A (enzyme) | – |
| 0.25 | 0.11 | WT; GGSSGG (SEQ ID NO: 6); CCP_1-4; GGSS(6) + G; compstatin (enzyme) | – |
| 1.06 | 1.74 | CFI-HSA A405G (enzyme) | – |
| 2.36 | 0.12 | CFI-HSA R557W (enzyme) | – |
| 1.85 | 0.3 | CFI-HSA Y408L; N531G; ΔC-term (Δ558-PFISQYNV (SEQ ID NO: 14)-565) (enzyme) | – |
